According to patent US20180291083A1:

Target: HLA-B*07:02 (human)
Test: UV ligand exchange ELISA; exchange yield grade
Conditions: remark: other sources report otherwise

- peptide exchange yield: 20 to 50%
B1: … (peptide)
peptide: YPGWHSTTI
